Patent US20160272693A1 (ZEALAND PHARMA A S, published 2016)
*1 amine or outer side, *2 acyl side, *3 side chain or, on linkers, in order; H or OH if unused. Bridges are numbered along the chain shown (N, C = ends). [ ]: non-standard residue; d: D form. The star is where a group is joined. C20 diacid = O=C(O)CCCCCCCCCCCCCCCCCCC(=O)*; γGlu = O=C(O)[C@H](CCC(=O)[*:2])N[*:1]; Hyp = O=C(O)[C@@H]1C[C@@H](O)CN1; NMeI = CC[C@H](C)[C@H](NC)C(=O)O; Aad = N[C@@H](CCCC(=O)O)C(=O)O; Orn = NCCC[C@H](N)C(=O)O; Sar = CNCC(=O)O

T1: human amylin receptor 3 (hAMYR3), hCTR2 co-expressed with human receptor activity modifying protein 3 (hRAMP3) (human, UniProt P30988 25-474; O60896 24-148)
T1 sequence (looked up) 1: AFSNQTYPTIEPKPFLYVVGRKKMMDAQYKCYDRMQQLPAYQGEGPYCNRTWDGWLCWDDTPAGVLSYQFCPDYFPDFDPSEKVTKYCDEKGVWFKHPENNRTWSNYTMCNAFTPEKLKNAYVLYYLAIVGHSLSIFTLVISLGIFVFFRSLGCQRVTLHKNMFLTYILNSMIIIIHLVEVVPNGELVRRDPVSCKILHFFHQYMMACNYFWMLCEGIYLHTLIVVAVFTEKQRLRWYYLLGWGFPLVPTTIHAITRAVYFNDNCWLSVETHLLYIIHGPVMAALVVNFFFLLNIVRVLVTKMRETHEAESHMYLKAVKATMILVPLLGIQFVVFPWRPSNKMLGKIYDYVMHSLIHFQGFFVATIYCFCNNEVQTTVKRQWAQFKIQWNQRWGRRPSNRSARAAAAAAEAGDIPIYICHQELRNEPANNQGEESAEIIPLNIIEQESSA
T1 sequence (looked up) 2: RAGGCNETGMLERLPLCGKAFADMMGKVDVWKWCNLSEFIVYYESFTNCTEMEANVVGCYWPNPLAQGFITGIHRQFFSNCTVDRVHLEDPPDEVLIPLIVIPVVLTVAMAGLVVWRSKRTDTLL

B1: [19CD]-isoGlu-R-C( )-NTAT-C( )-ATQRLAHFLHRF-Gly(Me)-A-Ile(Me)-LSSTEVGSETP-NH2 (Compd. 14) (peptide)
peptide: {C20 diacid-γGlu}-RCNTATCATQRLAHFLHRF[Sar]A[NMeI]LSSTEVGSETP-NH2
modifications: disulfide 2-7
SMILES: CC[C@H](C)[C@@H](C(=O)N[C@@H](CC(C)C)C(=O)N[C@@H](CO)C(=O)N[C@@H](CO)C(=O)N[C@H](C(=O)N[C@@H](CCC(=O)O)C(=O)N[C@H](C(=O)NCC(=O)N[C@@H](CO)C(=O)N[C@@H](CCC(=O)O)C(=O)N[C@H](C(=O)N1CCC[C@H]1C(N)=O)[C@@H](C)O)C(C)C)[C@@H](C)O)N(C)C(=O)[C@H](C)NC(=O)CN(C)C(=O)[C@H](Cc1ccccc1)NC(=O)[C@H](CCCNC(=N)N)NC(=O)[C@H](Cc1c[nH]cn1)NC(=O)[C@H](CC(C)C)NC(=O)[C@H](Cc1ccccc1)NC(=O)[C@H](Cc1c[nH]cn1)NC(=O)[C@H](C)NC(=O)[C@H](CC(C)C)NC(=O)[C@H](CCCNC(=N)N)NC(=O)[C@H](CCC(N)=O)NC(=O)[C@@H](NC(=O)[C@H](C)NC(=O)[C@@H]1CSSC[C@H](NC(=O)[C@H](CCCNC(=N)N)NC(=O)CC[C@H](NC(=O)CCCCCCCCCCCCCCCCCCC(=O)O)C(=O)O)C(=O)N[C@@H](CC(N)=O)C(=O)N[C@@H]([C@@H](C)O)C(=O)N[C@@H](C)C(=O)N[C@@H]([C@@H](C)O)C(=O)N1)[C@@H](C)O
B2: [19CD]-isoGlu-R-C( )-GTAT-C( )-ATERLAHFLHRSSF-Gly(Me)-A-Ile(Me)-LSSTEVGSNTP-NH2 (Compd. 15) (peptide)
peptide: {C20 diacid}-[γGlu]RCGTATCATERLAHFLHRSSF[Sar]A[NMeI]LSSTEVGSNTP-NH2
modifications: disulfide 3-8
SMILES: CC[C@H](C)[C@@H](C(=O)N[C@@H](CC(C)C)C(=O)N[C@@H](CO)C(=O)N[C@@H](CO)C(=O)N[C@H](C(=O)N[C@@H](CCC(=O)O)C(=O)N[C@H](C(=O)NCC(=O)N[C@@H](CO)C(=O)N[C@@H](CC(N)=O)C(=O)N[C@H](C(=O)N1CCC[C@H]1C(N)=O)[C@@H](C)O)C(C)C)[C@@H](C)O)N(C)C(=O)[C@H](C)NC(=O)CN(C)C(=O)[C@H](Cc1ccccc1)NC(=O)[C@H](CO)NC(=O)[C@H](CO)NC(=O)[C@H](CCCNC(=N)N)NC(=O)[C@H](Cc1c[nH]cn1)NC(=O)[C@H](CC(C)C)NC(=O)[C@H](Cc1ccccc1)NC(=O)[C@H](Cc1c[nH]cn1)NC(=O)[C@H](C)NC(=O)[C@H](CC(C)C)NC(=O)[C@H](CCCNC(=N)N)NC(=O)[C@H](CCC(=O)O)NC(=O)[C@@H](NC(=O)[C@H](C)NC(=O)[C@@H]1CSSC[C@H](NC(=O)[C@H](CCCNC(=N)N)NC(=O)CC[C@H](NC(=O)CCCCCCCCCCCCCCCCCCC(=O)O)C(=O)O)C(=O)NCC(=O)N[C@@H]([C@@H](C)O)C(=O)N[C@@H](C)C(=O)N[C@@H]([C@@H](C)O)C(=O)N1)[C@@H](C)O
B3: [19CD]-isoGlu-R-C( )-GTAT-C( )-ATERLAHFLTRSSF-Gly(Me)-A-Ile(Me)-LSSTEVGS-Aad-T-Hyp-NH2 (Compd. 12) (peptide)
peptide: {C20 diacid}-[γGlu]RCGTATCATERLAHFLTRSSF[Sar]A[NMeI]LSSTEVGS[Aad]T[Hyp]-NH2
modifications: disulfide 3-8
SMILES: CC[C@H](C)[C@@H](C(=O)N[C@@H](CC(C)C)C(=O)N[C@@H](CO)C(=O)N[C@@H](CO)C(=O)N[C@H](C(=O)N[C@@H](CCC(=O)O)C(=O)N[C@H](C(=O)NCC(=O)N[C@@H](CO)C(=O)N[C@@H](CCCC(=O)O)C(=O)N[C@H](C(=O)N1C[C@H](O)C[C@H]1C(N)=O)[C@@H](C)O)C(C)C)[C@@H](C)O)N(C)C(=O)[C@H](C)NC(=O)CN(C)C(=O)[C@H](Cc1ccccc1)NC(=O)[C@H](CO)NC(=O)[C@H](CO)NC(=O)[C@H](CCCNC(=N)N)NC(=O)[C@@H](NC(=O)[C@H](CC(C)C)NC(=O)[C@H](Cc1ccccc1)NC(=O)[C@H](Cc1c[nH]cn1)NC(=O)[C@H](C)NC(=O)[C@H](CC(C)C)NC(=O)[C@H](CCCNC(=N)N)NC(=O)[C@H](CCC(=O)O)NC(=O)[C@@H](NC(=O)[C@H](C)NC(=O)[C@@H]1CSSC[C@H](NC(=O)[C@H](CCCNC(=N)N)NC(=O)CC[C@H](NC(=O)CCCCCCCCCCCCCCCCCCC(=O)O)C(=O)O)C(=O)NCC(=O)N[C@@H]([C@@H](C)O)C(=O)N[C@@H](C)C(=O)N[C@@H]([C@@H](C)O)C(=O)N1)[C@@H](C)O)[C@@H](C)O
B4: [19CD]-isoGlu-R-C( )-GTAT-C( )-ATERLAHFLTRSSF-Gly(Me)-A-Ile(Me)-LSSTEVGSFT-Hyp-NH2 (Compd. 10) (peptide)
peptide: {C20 diacid}-[γGlu]RCGTATCATERLAHFLTRSSF[Sar]A[NMeI]LSSTEVGSFT[Hyp]-NH2
modifications: disulfide 3-8
SMILES: CC[C@H](C)[C@@H](C(=O)N[C@@H](CC(C)C)C(=O)N[C@@H](CO)C(=O)N[C@@H](CO)C(=O)N[C@H](C(=O)N[C@@H](CCC(=O)O)C(=O)N[C@H](C(=O)NCC(=O)N[C@@H](CO)C(=O)N[C@@H](Cc1ccccc1)C(=O)N[C@H](C(=O)N1C[C@H](O)C[C@H]1C(N)=O)[C@@H](C)O)C(C)C)[C@@H](C)O)N(C)C(=O)[C@H](C)NC(=O)CN(C)C(=O)[C@H](Cc1ccccc1)NC(=O)[C@H](CO)NC(=O)[C@H](CO)NC(=O)[C@H](CCCNC(=N)N)NC(=O)[C@@H](NC(=O)[C@H](CC(C)C)NC(=O)[C@H](Cc1ccccc1)NC(=O)[C@H](Cc1c[nH]cn1)NC(=O)[C@H](C)NC(=O)[C@H](CC(C)C)NC(=O)[C@H](CCCNC(=N)N)NC(=O)[C@H](CCC(=O)O)NC(=O)[C@@H](NC(=O)[C@H](C)NC(=O)[C@@H]1CSSC[C@H](NC(=O)[C@H](CCCNC(=N)N)NC(=O)CC[C@H](NC(=O)CCCCCCCCCCCCCCCCCCC(=O)O)C(=O)O)C(=O)NCC(=O)N[C@@H]([C@@H](C)O)C(=O)N[C@@H](C)C(=O)N[C@@H]([C@@H](C)O)C(=O)N1)[C@@H](C)O)[C@@H](C)O
B5: [19CD]-isoGlu-R-C( )-GTAT-C( )-ATERLAHFLTRSSF-Gly(Me)-A-Ile(Me)-LSSTEVGSGT-Hyp-NH2 (Compd. 13) (peptide)
peptide: {C20 diacid}-[γGlu]RCGTATCATERLAHFLTRSSF[Sar]A[NMeI]LSSTEVGSGT[Hyp]-NH2
modifications: disulfide 3-8
SMILES: CC[C@H](C)[C@@H](C(=O)N[C@@H](CC(C)C)C(=O)N[C@@H](CO)C(=O)N[C@@H](CO)C(=O)N[C@H](C(=O)N[C@@H](CCC(=O)O)C(=O)N[C@H](C(=O)NCC(=O)N[C@@H](CO)C(=O)NCC(=O)N[C@H](C(=O)N1C[C@H](O)C[C@H]1C(N)=O)[C@@H](C)O)C(C)C)[C@@H](C)O)N(C)C(=O)[C@H](C)NC(=O)CN(C)C(=O)[C@H](Cc1ccccc1)NC(=O)[C@H](CO)NC(=O)[C@H](CO)NC(=O)[C@H](CCCNC(=N)N)NC(=O)[C@@H](NC(=O)[C@H](CC(C)C)NC(=O)[C@H](Cc1ccccc1)NC(=O)[C@H](Cc1c[nH]cn1)NC(=O)[C@H](C)NC(=O)[C@H](CC(C)C)NC(=O)[C@H](CCCNC(=N)N)NC(=O)[C@H](CCC(=O)O)NC(=O)[C@@H](NC(=O)[C@H](C)NC(=O)[C@@H]1CSSC[C@H](NC(=O)[C@H](CCCNC(=N)N)NC(=O)CC[C@H](NC(=O)CCCCCCCCCCCCCCCCCCC(=O)O)C(=O)O)C(=O)NCC(=O)N[C@@H]([C@@H](C)O)C(=O)N[C@@H](C)C(=O)N[C@@H]([C@@H](C)O)C(=O)N1)[C@@H](C)O)[C@@H](C)O
B6: [19CD]-isoGlu-R-C( )-GTAT-C( )-ATERLAHFLTRSSF-Gly(Me)-A-Ile(Me)-LSSTEVGS-Orn-T-Hyp-NH2 (Compd. 11) (peptide)
peptide: {C20 diacid}-[γGlu]RCGTATCATERLAHFLTRSSF[Sar]A[NMeI]LSSTEVGS[Orn]T[Hyp]-NH2
modifications: disulfide 3-8
SMILES: CC[C@H](C)[C@@H](C(=O)N[C@@H](CC(C)C)C(=O)N[C@@H](CO)C(=O)N[C@@H](CO)C(=O)N[C@H](C(=O)N[C@@H](CCC(=O)O)C(=O)N[C@H](C(=O)NCC(=O)N[C@@H](CO)C(=O)N[C@@H](CCCN)C(=O)N[C@H](C(=O)N1C[C@H](O)C[C@H]1C(N)=O)[C@@H](C)O)C(C)C)[C@@H](C)O)N(C)C(=O)[C@H](C)NC(=O)CN(C)C(=O)[C@H](Cc1ccccc1)NC(=O)[C@H](CO)NC(=O)[C@H](CO)NC(=O)[C@H](CCCNC(=N)N)NC(=O)[C@@H](NC(=O)[C@H](CC(C)C)NC(=O)[C@H](Cc1ccccc1)NC(=O)[C@H](Cc1c[nH]cn1)NC(=O)[C@H](C)NC(=O)[C@H](CC(C)C)NC(=O)[C@H](CCCNC(=N)N)NC(=O)[C@H](CCC(=O)O)NC(=O)[C@@H](NC(=O)[C@H](C)NC(=O)[C@@H]1CSSC[C@H](NC(=O)[C@H](CCCNC(=N)N)NC(=O)CC[C@H](NC(=O)CCCCCCCCCCCCCCCCCCC(=O)O)C(=O)O)C(=O)NCC(=O)N[C@@H]([C@@H](C)O)C(=O)N[C@@H](C)C(=O)N[C@@H]([C@@H](C)O)C(=O)N1)[C@@H](C)O)[C@@H](C)O

Biological target: T1, human amylin receptor 3 (hAMYR3), hCTR2 …
Experiment: cell-based or functional assay

Binder	hAMYR3 EC50 (nM); cAMP induction [nM]
B1	0.26
B2	0.079
B3	0.25
B4	0.35
B5	0.38
{C20 diacid-γGlu}-RCNTATCATQRLAHFLHRSSF[Sar]A[NMeI]LSSTEVGSNTP-NH2 (disulfide 2-7) [[19CD]-isoGlu-R-C( )-NTAT-C( )-ATQRLAHFLHRSSF-Gly(Me)-A-Ile(Me)-LSSTEVGSNTP-NH2 (Compd. 16)]	0.11
B6	0.2
